Results from publication PMC4077652, “An Unstable Th Epitope of P. falciparum Fosters Central Memory T Cells and Anti-CS Antibody Responses” (PLoS ONE, 2014).
Values joined by “and” are separate entries in the source; they are usually repeats but may differ in a detail not shown here. Equal entries are not always repeated. Where two headings read alike, the source gives them in different places.

What was measured:
[1] = target: soluble recombinant HLA-DR4 (HLA-DRβ1*04:01) (human); assay: ELISA
[2] = target: soluble recombinant HLA-DR4 (HLA-DRβ1*04:01) (human); assay: ELISA; remark: listed apart in the source
[3] = target: soluble recombinant HLA-DR4 (HLA-DRβ1*04:01) (human)
[4] = target: soluble recombinant HLA-DR4 (HLA-DRβ1*04:01) (human); assay: dissociation kinetics (LB3.1 capture, europium-streptavidin time-resolved fluorescence)
[5] = target: soluble recombinant HLA-DR4 (HLA-DRβ1*04:01) (human); assay: ELISA; apparent Kd; direct binding of biotin-labeled peptide to DR4 as in the DR-ELISA (72 h), binding reactions set up with 1 µM HLA-DM

| Substance | IC50 [2] [nM] | Kd [2] | other results |
| --- | --- | --- | --- |
| HA 306-318 peptide, unlabeled | 310 |  | IC50 [1]: 172000 nM |
| QNT-5 332-345 peptide, unlabeled | 1700 |  |  |
| QNT-Y peptide (QNT-5 analogue L335Y), unlabeled | 130 |  |  |
| biotin-labeled HA 306-318 peptide |  |  | half-life [3]: 620 h |
| biotin-labeled T* 326-345 peptide (NF-54 variant) |  | 248 nM and 123 nM |  |
| biotin-labeled T*-1 327-338 peptide |  | 42.6 nM | half-life [4]: 63.9 h; half-life with HLA-DM [4]: 4.9 h; Kd [5]: 51.6 nM |
